Experimental data taken from patent publication US10487114.

System: T1, pT231-Pro tau peptide KVAVVR-(pT231)-(Pro)-PKSPS
T1 sequence: KVAVVRTPPKSPS

With PP2A the “dephosphorylation of pT231-tau peptide, read with the conformation-specific antibodies” value was “Trans, but not cis, pT231-tau peptide was readily dephosphorylated by PP2A in a time-dependent manner”.
